In test [1] the target is IL13RA2 on tumor cell lines (U251MG.Luc, U87MG.Luc, U87MG.Luc clone2, U138MG.Luc, A375.Luc) (UniProt Q14627). As to the kind of experiment: cell-based or functional assay.
Test [2] deals with T1, recombinant human IL13RA2 (human, UniProt Q14627 27-343).
T1 construct: Coating antigen of the phage ELISA screen; The immunogen was ACRO Cat. No. IL2-H52H5; also called antigen proteins
T1 sequence (looked up): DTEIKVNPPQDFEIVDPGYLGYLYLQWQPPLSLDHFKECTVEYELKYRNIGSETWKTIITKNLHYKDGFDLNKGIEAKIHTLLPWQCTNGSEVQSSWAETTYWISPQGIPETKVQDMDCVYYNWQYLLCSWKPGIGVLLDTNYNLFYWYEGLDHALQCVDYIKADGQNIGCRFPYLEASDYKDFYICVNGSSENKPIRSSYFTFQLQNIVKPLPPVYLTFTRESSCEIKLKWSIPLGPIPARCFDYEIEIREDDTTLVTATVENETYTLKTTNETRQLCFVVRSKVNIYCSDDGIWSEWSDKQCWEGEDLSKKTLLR
As to the kind of experiment: phage ELISA on plates coated with recombinant human IL13RA2, anti-M13-HRP, A450. The protocol: Individual output phage clones were grown in 96-deep-well plates and rescued by M13KO7 helper phage overnight. To identify clones that bound to antigen proteins, 96-well ELISA microtiter plates were coated with recombinant human IL13RA2 in coating buffer overnight at 4° C., and the plates were then blocked with blocking buffer. After blocking, approximately 50 µL per well of phage supernatant from overnight cell culture was added to the plates for 1.5-hour incubation at 4° C. The plates were washed four times, and the HRP-conjugated anti-M13 monoclonal antibody was added to the plates for 45-minute incubation at 4° C. The plates were again washed five times and substrate solution was added to the wells for color developing. Absorbance at 450 nm was measured for each well.
In general terms: An ELISA detects its analyte on a solid surface through an enzyme-linked reagent.

Test [3] addresses T2, Recombinant IL13RA2-His protein (Sino Biological, Cat #10350-H08H) (human, UniProt Q14627 27-343).
T2 construct: Bought protein; also called human IL13RA2 his-tag protein; IL13AR2; not shown: His tag
T2 sequence (looked up): T1 sequence (looked up)
Nature of the test: SPR, Biacore 2000; VHH-mIgG1Fc coupled to CM5 chip, IL13RA2-His injected; 1:1 Langmuir fit. As to the method:
The affinity of each VHH-mIgG1Fc for IL13AR2 was determined by SPR using a BIACORE® 2000 analytical system (GE Healthcare). Briefly, each VHH-mIgG1Fc protein was covalently coupled to a CM5(s) sensor chip using 4 μg/ml VHH-mIgG1Fc. Recombinant IL13RA2-His protein (Sino Biological, Cat #10350-H08H) was serially diluted in running buffer (10 mM HEPES, 150 mM NaCl, 3 mM EDTA, 0.05% Tween-20, pH 7.4) and injected at a flowrate of 10 μl/min followed by dissociation. The association and dissociation rate constants were determined using the BIACORE® 2000 evaluation software version 3.0 (Langmuir binding, local fit, 1:1 binding model).

A word on the Kd: it is the free concentration of one partner at which half of the binding sites on the other are occupied at equilibrium, for simple one-to-one binding. By koff is commonly meant a measure of how fast the partners let go of each other. As a reminder, the kon is a measure of how fast the partners come together.

In test [1], “IL13-E13Y CAR (from UniProt P35225 35-146)” returned an IFNγ release level, CAR-T co-cultured with U87MG.Luc (UnT 80) of 580 pg/mL; an IFNγ release level, CAR-T co-cultured with U138MG.Luc (UnT 70) of 252 pg/mL; an IFNγ release level, CAR-T co-cultured with U251MG.Luc (UnT 196) of 4360 pg/mL.

B1: VHH1353 (VHH)
VHH: EVQLVESGGGSVQAGGSLRLSCAASGYTSSTNCMGWFRQAPGKEREGVASIRGTGGSTYYADSVKGRFTISRDDGKNTLYLQMNSLKPEDTAMYYCAAATGTSFSEARCVTAPPYKYPYWGQGTQVTVSS
With B1, in test [2], the binding result was “binds”.

B2: VHH1330-(GGGGS)2-VHH1345-mIgG1Fc (Fc fusion)
chain: QVQLVESGGGLVQPGGSLTLSCAASGYRISLYKMGWFRQDPGKQREGVAAVDRNGRTIYADSVKGRFTIYQDNAKNTLDLQMNSLKPEDTAMYYCAADLWRIGSPASLSPTDYGDWGQGTQVTVSSGGGGSGGGGSAVQLVDSGGGSAQVGGSLKLSCTASGYIFSSCGMGWYRQAPGKKREFVTSVSKYGTTTYPDSVKGRFTISLDNAKNTAYLQMNSLKIEDTAVYYCTTLASRGTTCPASVYSGPGTQVTVSSVPRDCGCKPCICTVPEVSSVFIFPPKPKDVLTITLTPKVTCVVVDISKDDPEVQFSWFVDDVEVHTAQTQPREEQFNSTFRSVSELPIMHQDWLNGKEFKCRVNSAAFPAPIEKTISKTKGRPKAPQVYTIPPPKEQMAKDKVSLTCMITDFFPEDITVEWQWNGQPAENYKNTQPIMNTNGSYFVYSKLNVQKSNWEAGNTFTCSVLHEGLHNHHTEKSLSHSPGK
notes: Two VHH domains joined by (GGGGS)2 and fused to mouse IgG1 Fc; also called bi-VHH-mIgG1Fc; bi-VHH chimeric anti-IL13RA2 antibody
Turning to B2, in test [3], the Kd was found to be 0.71 nM, the koff amounted to 5.4e-05 s⁻¹ and the kon was 75000 M⁻¹ s⁻¹.

B3: VHH1354 (VHH)
VHH: AVQLVDSGGGLVQPGGSLRLSCAASGFTFSTYGMSWVRQPPGKGLEWVSGISPGGDHTTYADSVKGRFTISRDNAKNTLYLQLSSLKTEDTAMYYCTTVPGRSRYGNYNPRGQGTQVTVSS
With B3, in test [2], the binding result is recorded as “binds”.

B4: VHH1345-mIgG1Fc (Fc fusion)
chain: AVQLVDSGGGSAQVGGSLKLSCTASGYIFSSCGMGWYRQAPGKKREFVTSVSKYGTTTYPDSVKGRFTISLDNAKNTAYLQMNSLKIEDTAVYYCTTLASRGTTCPASVYSGPGTQVTVSSVPRDCGCKPCICTVPEVSSVFIFPPKPKDVLTITLTPKVTCVVVDISKDDPEVQFSWFVDDVEVHTAQTQPREEQFNSTFRSVSELPIMHQDWLNGKEFKCRVNSAAFPAPIEKTISKTKGRPKAPQVYTIPPPKEQMAKDKVSLTCMITDFFPEDITVEWQWNGQPAENYKNTQPIMNTNGSYFVYSKLNVQKSNWEAGNTFTCSVLHEGLHNHHTEKSLSHSPGK
notes: also called VHH-mIgG1Fc chimeric antibody; single VHH chimeric anti-IL13RA2 antibody
As for B4, in test [3], the Kd amounted to 14 nM, the koff is 0.00045 s⁻¹ and the kon came to 33000 M⁻¹ s⁻¹.

B5: VHH1330-mIgG1Fc (Fc fusion)
chain: QVQLVESGGGLVQPGGSLTLSCAASGYRISLYKMGWFRQDPGKQREGVAAVDRNGRTIYADSVKGRFTIYQDNAKNTLDLQMNSLKPEDTAMYYCAADLWRIGSPASLSPTDYGDWGQGTQVTVSSVPRDCGCKPCICTVPEVSSVFIFPPKPKDVLTITLTPKVTCVVVDISKDDPEVQFSWFVDDVEVHTAQTQPREEQFNSTFRSVSELPIMHQDWLNGKEFKCRVNSAAFPAPIEKTISKTKGRPKAPQVYTIPPPKEQMAKDKVSLTCMITDFFPEDITVEWQWNGQPAENYKNTQPIMNTNGSYFVYSKLNVQKSNWEAGNTFTCSVLHEGLHNHHTEKSLSHSPGK
notes: as for B4
Consider B5, for which, in test [3], the Kd turned out to be 60 nM, the koff was found to be 0.0022 s⁻¹ and the kon worked out at 37000 M⁻¹ s⁻¹.

B6: VHH2110 (VHH)
VHH: QVKLEESGGGSVQAGGSLRLSCAASGIPTRTLFMGWFRQAPGKEREEVARISDNGNTGYADFVKGRFTISKDNSKNTLYLQMSSLKPDDTAMYYCSARRASYSATVLWGQGTQVTVSS
Consider B6, for which the binding result in test [2] is reported as “binds”.

B7: VHH1339 (VHH)
VHH: EVQLVESGGGSVQAGGSLKLSCAASGDIFSMCGMGWYRQAPGKQREMVSRISPRGTAIYPDSLKGRFTVSRDNAKNTLYLQMNSLNTEDTAVYYCAAGGDSASRTPHCRSLNWGQGTQVTVSS
For B7, the binding result in test [2] is recorded as “binds”.

B8: VHH1366 (VHH)
VHH: QVKLEESGGGSVEAGGSLKLSCAGFGDMFSSCGMGWYRQAPGKEREMVSRISPRGTSITIDSVRGRFTISRDNAKNTLALEMNSLKIEDTAVYYCAAGGDSASRTPRCRSLNWGQGTQVTVSS
Consider B8, for which the binding result in test [2] was “binds”.

B9: VHH1343 (VHH)
VHH: QVKLEESGGGSVQAGGSLKLSCAASGYNFSKCGMGWFRRALREERELVAEISNDGTTTYDDSVKGRFTISRDNVKNTVYLQMNNLKTEDTAVYYCASRNPCGLLWGQGTQVTVSS
Take B9: in test [2], the binding result is “binds”.

Values taken from US20260151429A1 (NANJING LEGEND BIOTECH, published 2026).
